Kd data for 2 molecules are collected here from US20140094385, “SEQUENCE-SPECIFIC ENGINEERED RIBONUCLEASE H AND THE METHOD FOR DETERMINING THE SEQUENCE PREFERENCE OF DNA-RNA HYBRID BINDING PROTEINS” (MIEDZYNARODOWY INSTYUT BIOLOGII MOLEKULARNEJ I KOMORKOWEJ, published 2014).

The target in the series is GST-ZfQQR (zinc finger ZfQQR) (artificial). Put plainly: filter; 25 mM Tris pH 8.0, 100 mM KCl, 20 uM ZnSO4, 2 mM DTT, poly dI-dC, room temperature; protein called zinc finger ZfQQR, GST fusion is the purified form described. As to conditions: tags: N-terminal GST (pGEX-4T-1); label: radioactive. The method, then:
To confirm that the consensus sequence obtained after five rounds of SELEX is bound by the zinc finger, a constant KD was measured using the nitrocellulose filter binding method. The assay was performed with radioactively labeled substrates described in the literature (LDNA, LRNA) and a consensus sequence (CDNA, CRNA) see FIG. 16:
Binding reaction contained 2 nM of labeled substrate, 2 μg poly dI-dC as a nonspecific competitor, 25 mM Tris pH 8.0, 100 mM KCl, 20 μM ZnSO₄, 2 mM DTT. The binding reaction was incubated for 30 min at room temperature and then filtered immediately through a nitrocellulose filter and washed with 8 volumes of reaction buffer of 25 mM Tris pH 8.0, 100 mM KCl, 20 μM ZnSO₄, 2 mM DTT. Measurement of the intensity of the signal coming from the retention of radioactively labeled substrate was made on an audioradiogram of the nitrocellulose filter using a Typhoon Trio scanner and ImageQuant TL software.

Chain of GST-ZfQQR (zinc finger ZfQQR) (artificial) (chain, as listed by the source): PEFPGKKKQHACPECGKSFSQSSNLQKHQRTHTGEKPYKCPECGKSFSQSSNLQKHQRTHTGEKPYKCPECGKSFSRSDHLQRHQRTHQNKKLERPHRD

B1: literature ZfQQR site hybrid (LDNA/LRNA) (DNA:RNA)
DNA: TCACTGGGGAAGAAGAATCCTC
RNA: GAGGAUUCUUCUUCCCCAGUGA
What is called Kd is the free concentration of one partner at which half of the binding sites on the other are occupied at equilibrium, for simple one-to-one binding. Consider B1, for which the dissociation constant (Kd) turned out to be 188 nM.

B2: SELEX consensus hybrid (CDNA/CRNA) (DNA:RNA)
DNA: TCACTGGTCGGTGGGAATCCTC
RNA: GAGGAUUCCCACCGACCAGUGA
Take B2: the Kd was 155 nM.
